This experiment addresses T1, human IL-6 (human, UniProt P05231 30-212).
T1 construct: the protein used was bought recombinant human IL-6 (R&D Systems), in part biotinylated; also called rhIL-6; hIL-6
Briefly: panning and screening on IL-6.

B1: SEQ ID NO 681 (designed binder)
chain: CGSDEFLCNNGKCIPPTWGCDGVNDCQDNSDEAPALCPPPTCRSNQFQCGSGYCIPQRWVCDGVDDCEDSSDEKGCTPHT
For the molecule B1, the binding result is listed as “binds”.

B2: SEQ ID NO 670 (designed binder)
chain: CPSNQFQCRNNGTCIPLPWLCDGVDDCGDDSDETSCTEPTCVPSQFQCGSGYCISQRWVCDGENDCEDSSDEANCAGSVPT
With B2, the binding result is on record as “binds”.

B3: SEQ ID NO 700 (designed binder)
chain: CRSNQFQCGSGYCIPVKWLCDGENDCEDSSDEESCPARTCPPSEFRCKGSGKCVPQHWLCDGVNDCEDDSDEKSCPPPT
For B3, the binding result is reported as “binds”.

B4: SEQ ID NO 677 (designed binder)
chain: CRADQCQCNSGHCLSRNLRCDGEDDCADNSDEKSCSQDPEFHKVCLPDQFQCGSGYCLPQRWVCDGVDDCEDSSDEKGCTPHT
Turning to B4, the binding result is on record as “binds”.

B5: SEQ ID NO 680 (designed binder)
chain: CPADEFPCKNGKCLPLPWVCDGDNDCADNSDETDCTATAPTCRSNQFQCGSGYCISQRWVCDGENDCEDSSDEANCAGSVPT
In the case of B5, the binding result was “binds”.

B6: SEQ ID NO 672 (designed binder)
chain: CQPGQFQCHDYGRCVSQNWLCDGDPDCLDSSDEANCQPPTCVPSQFQCGSGYCISQRWVCDGENDCEDSSDEANCAGSVPT
Take B6: the binding result is “binds”.

B7: SEQ ID NO 669 (designed binder)
chain: CEASQFPCRNSERCVPPHLLCDGVNDCADGSDEIGCPPHTCVPSQFQCGSGYCISQRWVCDGENDCEDSSDEANCAGSVPT
As for B7, the binding result is given as “binds”.

B8: SEQ ID NO 712 (designed binder)
chain: CRSSQFRCSSGQCVSLGWVCDGVNDCPDSSDETGCPKRTCLPSQFQCGSGYCISQRWVCDGENDCEDSSDEANCAGSVPT
B8: the binding result is on record as “binds”.

B9: SEQ ID NO 689 (designed binder)
chain: CRASQFQCGSGYCIPRPWLCDGVNDCEDSSDEANCAGSVPTCQPSQFRCRSGHCISGALGCDGEPDCGDGSDETGCRASAHT
For B9, the binding result is given as “binds”.

B10: SEQ ID NO 714 (designed binder)
chain: CPPSQFTCSNGNCLSPTLLCDGVNDCVDDSDETSCAASVHTCLPSQFQCGSGYCISQRWVCDGENDCEDSSDEANCAGSVPT
On to B10, for which the binding result is reported as “binds”.

B11: SEQ ID NO 665 (designed binder)
chain: CRASQFQCGSGYCIPRPWLCDGVNDCEDGSDEADCQTRTCVPSQFQCGSGYCISQRWVCDGENDCEDSSDEANCAGSVPT
For B11, the binding result is on record as “binds”.

B12: SEQ ID NO 675 (designed binder)
chain: CRSSEFRCDSGHCLPLPWVCDGDDDCEDGSDEAQDCEPRTCVPSQFQCGSGYCISQRWVCDGENDCEDSSDEANCAGSVPT
On to B12, for which the binding result is reported as “binds”.

With CQANEFTCSSGNCLSPALLCDGVDDCGDNSDETNCASPAPT (designed binder) [SEQ ID NO 511], the binding result was “binds”.

B13: SEQ ID NO 635 (designed binder)
chain: CAPSQFTCGNGNCVPRPWLCDGDNDCEDDSDETSCPPHTCLPDQFQCGSGYCLPQAWVCDGENDCEDGSDETNCPART
As to B13, the binding result was “binds”.

B14: SEQ ID NO 645 (designed binder)
chain: CGANEFQCGSGYCLPVGWVCDGENDCEDNSDEKGCPPHTCLPNQFQCRNGRCIPLPWLCDGDNDCEDDSDATNCTPRT
With B14, the binding result was “binds”.

B15: SEQ ID NO 671 (designed binder)
chain: CQSSEFTCSSGRCLSAGWLCDGVNDCRDDSDEESCTAPVPTCVPSQFQCGSGYCISQRWVCDGENDCEDSSDEANCAGSVPT
Turning to B15, the binding result is “binds”.

These data come from patent publication US20090305962A1 (Amgen, published 2009).
